The results in this text go back to patent US20210024607A1, “EXPRESSION VECTORS FOR CHIMERIC ENGULFMENT RECEPTORS, GENETICALLY MODIFIED HOST CELLS, AND USES THEREOF” (CERo Therapeutics, Inc., priority 2018, published 2021).

In test [1] the test system is HPV+ SCC152 head and neck cancer cells. The test can be described thus: FACS phagocytosis assay with pHrodo-labeled SCC152 cells. Particulars: CellTrace-violet labeled T cells, compared with mock transduced T cells. The test is classed as cell-based, human. The procedure:
CellTrace-violet labeled mock transduced, HPV E7-TCR transduced T cells, and HPV E7-TCR/CER29 tandem expression cassette transduced T cells were co-cultured pHrodo-red labeled HPV+SCC152 head and neck cancer cells.
The ability of CER modified-T cells to engulf target cells and recapitulate engulfment-signaling events was evaluated in co-culture assays. T cells were transduced with a nucleic acid encoding HPV E7 specific TCR (polypeptide sequence comprising SEQ ID NO:158) or tandem expression cassette encoding HPV E7 specific TCR+ CER29 (polypeptide sequence comprising SEQ ID NO:169). pHrodo-labeled HPV+ SCC152 head and neck cancer cells were co-incubated with mock transduced T cells, HPV E7 TCR transduced T cells, or HPV E7 TCR/CER29-transduced T cells.

The test system of test [2] is phosphatidylserine-coated beads. Kind of test: Phagocytic uptake of phosphatidylserine-coated latex beads. The test is classed as cell-based, human. Particulars: 30 minutes incubation, transduced CD8+ T cells. An excerpt: Streptavidin coated latex beads were bound with biotin-phosphatidylserine and used for phagocytosis assays.

B1: HPV16 E7 TCR: HPV16 E7 specific TCR (WO2015/184228), SEQ ID NO:90; control transduced alone into T cells (protein)
chain: MAPGLLCWALLCLLGAGLVDAGVTQSPTHLIKTRGQQVTLRCSPKSGHDTVSWYQQALGQGPQFIFQYYEEEERQRGNFPDRFSGHQFPNYSSELNVNALLLGDSALYLCASSLGWRGGRYNEQFFGPGTRLTVLEDLRNVTPPKVSLFEPSKAEIANKQKATLVCLARGFFPDHVELSWWVNGKEVHSGVCTDPQAYKESNYSYCLSSRLRVSATFWHNPRNHFRCQVQFHGLSEEDKWPEGSPKPVTQNISAEAWGRADCGITSASYQQGVLSATILYEILLGKATLYAVLVSTLVVMAMVKRKNSRAKRSGSGATNFSLLKQAGDVEENPGPMWGVFLLYVSMKMGGTTGQNIDQPTEMTATEGAIVQINCTYQTSGFNGLFWYQQHAGEAPTFLSYNVLDGLEEKGRFSSFLSRSKGYSYLLLKELQMKDSASYLCASVDGNNRLAFGKGNQVVVIPNIQNPEPAVYQLKDPRSQDSTLCLFTDFDSQINVPKTMESGTFITDKCVLDMKAMDSKSNGAIAWSNQTSFTCQDIFKETNATYPSSDVPCDATLTEKSFETDMNLNFQNLLVIVLRILLLKVAGFNLLMTLRLWSS
modifications: HPV16 E7 TCRbeta chain-P2A-TCRalpha chain
notes: control transduced alone into T cells
For B1, the “phagocytosis of pHrodo-labeled SCC152 cells by FACS” value in test [1] is “no difference in phagocytosis between mock-transduced T cells and E7 TCR transduced T cells”. In test [2], the “uptake of phosphatidylserine-coated latex beads” value is listed as “do not exhibit uptake of latex beads coated with phosphatidylserine”.
